Data reported in the nanobody polyreactivity screen of Harvey et al. (2022).

Test: yeast display, Sf9 membrane polyspecificity reagent, FACS + sequencing; frameworks hold sequencing errors
Procedure, shortened: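 Polyreactivity labels are assigned by the sorting gate from which each nanobody was recovered. The gates were low and high (top ~1%), set on anti-HA fluorescence for expression and streptavidin fluorescence for reagent binding. Before sorting, galactose-induced (36–48 hours) yeast display cells were stained for 1 hour at 4 °C with 10% biotinylated, detergent-solubilized Sf9 membrane reagent.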

Sequence | polyreactivity (PSR sort gate)
QVQLVESGGGLVQAGGTLRLSCAPSARTFDRNAMGWYRQAPGKERELVASISWVGTSTYYADSVKGRFTISRDNAKNTVYLQMNSLKPDDSAVYYCAARRVKYISLDYWGQGTQVTVSS | low polyreactivity
QVQLVESGGGLVQAGGRLRLSCAASGSIFERNVMGWYRQAPGKERELVAAITSGGSTNYADSVKGRFTISRDNAKNTVYLQMNSLKPEETAVYYCAADVPYRSRFYRYRLSGGDYWGQGSQVTVSS | low polyreactivity
QVQLVESGGGLVQAGGSLRLSCAASGLIFSWNAMGWYRQAPGKEWELVASISYSGGRTYYADSVKGRFTISRDNAKNTVYLQKNSLKPEDTAVYYCAADTNATTDPQMDYWGQGTQVTVSS | low polyreactivity
QVQLVESGGGLVQAGGSLRLSCAASGFTFAFYAMGWYRQAPGKERELVAAISRRGGSTTYADSVKGRFTISRDNAKNTVYLQMNSLKPEDTAVYYCAAGWRGGRYRYFAYDYWGQGTQVTVSS | high polyreactivity
QVQLVESGGGLVQAGGSLRLSCAASGRTFDIYAMGWYRQAPGKERELVAAISSGGSTYYADSVKGRFTISRDNAKNTVYLQMNSLKPEDTAVYYCAVRWYDQVSRRGIGYYWGQGTQVTVSS | low polyreactivity
QVQLVESGGGLVQAGGSLRLSCAASGSIFRVYAMGWYRQAPGKERELVAAITNGGNTNYADSVKGRFTISRDNAKNTVYLQMNSLKPEDTAVYYCAATLHRYWYRLYYYWGQGTQVTVSS | high polyreactivity
QVQLVESGGGLVQAGGSLRLSCSASGSTYYNAMGWYRQAPGKERQLVAAIRFRSGSTYYADSVKGRFTISRDNAKNTVYLQMNSLKPEDTAVYYCAADNKRSWRYAYTYWGQGTQVTVSS | high polyreactivity
QVQLVESGGGLVQAGGSLRLSCAASGRIFSYYAMGWYRQAPGKERELVASISTSSGSTYYADSVKGRFTISRDNAKNTVYLQMNSLKPEDTAVYYCNADYTGYYRWRNDDYWGQGTQVTVSS | high polyreactivity
QVQLVESGGGLVKAGGSLRLSCAASGSIFSNNAMGWYRQAPGKEREFVAAIRGRGTRTYYADSVKGRFTISRDNAKNTVYLQMNSLKPEDTAVYYCAKYPFQPRDLQFNYWGQGTQVTVSS | high polyreactivity
QVQLVESGGGLVQAGGSLRLSCAASGSIFGVYAMGWYRQAPGKERELVAGITFGDSTTYYADSVKGRFTISRDNAKNTVYLQMNSLKPEDTAVYYCAADNRWEDYKVDYWGQGTQVTVSS | low polyreactivity
QVQHVESGGGLVQAGGSLRLSCAASGSTFLVYAMGWYRQAPGKERELVAAISGAGSTTYADSVKGRFTISRDNAKNTVYLQMNSMKPEDTAVSYCNARTVAIWSERYYWGQGTQVTVSS | low polyreactivity
QVQLVESGGGLVQAGGSLRLSCAASGRIFLGYAMGWYRQAPGQERELVASITSSGGSTYYADSVKGRFTISRDNAKNTVYLLMNSLKPEDTAVYYCAKVGHYRWGWLSRAASDYWGQGTQVTVSS | high polyreactivity
QVQLVESGGGLVQAGGSLRLSCAASGSNFVWYVMGWYRQAPGKDRELVAAITWSAARTYYADSVKGRFTISRDNAKNTVYLQMNSLKPEDTAVYYCAADGYPLQLYNYWGQGTQVTVSS | low polyreactivity
QVQLVESGGGLVQAGGSLRLSCAASGGIFAYYAMGWYRQAPGKERELVAAITSRGGRTYYADSVKGRFTISRDNAKNTVYLQMNSLKPEDTAVYYCAAEYINSNYQWYYYWGQGTQVTVSS | high polyreactivity
QVQLVESGGGLVQAGGSLRVSCAASGGILRGYAMGWYRQARGKEWELVAAISRGGRTNYADSVKGRFTISRDNAKNTVYLQMNSLKPEDTAVYYCAKRYARGENDYWGQGTQVTVSS | high polyreactivity
QVQLVESGGGLVQAGGSLRLSCAASGFIFPDYAMGWSRQAPGKERELVAAISKRGGSTYYADSVKGRFTISRDNAKNTVYLQMNSLKPEDTAVYYCAAVTSVNPSVFNGNYWGQGTHVTVSS | low polyreactivity
QVQLVESGGGLVQAGGSLSLSCAASGSTFAYYAMGWYRQAPGKERELVAGITWTGGSTYYADSVKGRFTISRDNAKHTDYLQMNSLKPEDTAVYYCAVTYPYGYEYDHWGQGSQVTVSS | low polyreactivity
QVQLVESGGGLVEAGGSLRLSCAASGFTFYHNAMGWYRPAPGKERELVAAISSGGTTNYADSVKGRFTISRDNAKNTVYLQMNSLTPEDTAVYYCAARGWGPTRAYDYWGQGTQVTVSS | high polyreactivity
QVQLVESGGGLVQAGGSLRISCAASGNTFDYYTMGWYRQAPGKERDLVASIDWSTTTTYYADSVKGRFTISRDNAKTTVYLQMKSLKPEDTAVYYCNTVYDFYHLGLYSGFRYHYWGQGTQVTVSS | low polyreactivity
QVQLVESGGGLVQAGGSLRLSCAASGFTLGDNAMGWYRQAPGTERELVAAISASGGSTYYADSVKGRFTISRDNEKNTVYLQMNSLKPEDTAVYYCILHGYKYDYWGQGTQVTVSS | low polyreactivity
QVQLVESGGGLVQAGGSLRLSCAASGRTLQTYVMGWYRQAPGKERELVAAITRGGGSTYYADSVKGRFTISRDNGKNTVFLQMNSLKPVDTSVYYCAASALRFNSRFSHWYIYWGQGTQVTVSS | high polyreactivity
QVQLVESGGGLVQAGGSLRLSCAASGRTFSAYAMGWYRQAPGKEMELVARITSVDSTNYADSVKGRFTISRDNAKNTVYLQMNSLKPEDTAVYYCNATFGYPFVDYDDYWGQGTQVTVSS | low polyreactivity
